How the values were obtained:
S-protein = target: T1, S-protein (Bos taurus, UniProt P61823); settings: reference (3); cited from earlier work
T1 sequence (P61823 47-150 limits assumed): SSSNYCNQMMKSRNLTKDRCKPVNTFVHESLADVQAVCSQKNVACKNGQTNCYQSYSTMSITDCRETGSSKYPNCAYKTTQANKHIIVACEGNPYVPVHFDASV

Ribonuclease S-protein = target: T2, Ribonuclease S-protein (Bos taurus, UniProt P61823); assay: Radiological screening of library spiked with YNFEVL-beads against 14C-S-protein, scintillation counting of isolated beads; assay type: binding
T2 construct: Ribonuclease S-protein was purchased from Sigma (St. Louis, Mo.); purchased Sigma (St. Louis, Mo.)
T2 sequence (P61823 47-150 limits assumed): T1 sequence (P61823 47-150 limits assumed)
From the text: Following the protocol of Jentoft et al. (21), aminated beads (resin modified with TOTDA-linker) and proteins were labeled using reductive ^14 C-methylation. The ^14 C-methylated beads are hereafter referred to as ^14 C-Test Beads. The ^14 C-labeled formaldehyde was obtained from Dupont-NEN (55 Ci/mole, Boston, Mass.). Ribonuclease S-protein was purchased from Sigma (St. Louis, Mo.); human fibrinogen, from Chromogenix AB (Molndal, Sweden). To separate ^14 C-labeled protein from non-incorporated ^14 C-formaldehyde, an Econopac 10DG Desalting Column (Biorad, Hercules, Calif.) was employed. The ^14 C-labeled proteins were stored in the labeling buffer, 0.1M sodium phosphate buffer (Fisher, Pittsburgh, Pa.), pH 7, at -18° C. Pure protein solutions were quantitated using A280, with extinction coefficients of 1.5 and 0.73 for fibrinogen and S-protein, respectively. The resulting protein concentrations were 30 μM for ^14 C-S-protein, and 4 μM for ^14 C-fibrinogen. Maximal labeling yield was calculated based on maximum of two ^14 C-labeled methyl groups per mole of amino groups.
The number of disintegrations per minute, DPM, of radioactive samples was determined using a 1500 TriCarb Liquid Scintillation Analyzer from Packard (Meridan, Conn.) and CytoScint ES scintillation liquid from ICN (Casta Mesa, Calif.). Values of DPM are corrected for the background of the liquid scintillation counter (30-35 DPM) unless specified otherwise.
Library beads, 20 mg in dry weight per experiment, were first mixed with 1 ml of blocking solution to block non-specific interactions between the peptides and ^14 C-protein. For screenings against S-protein, 2% bovine serum albumin (BSA, Sigma) in PBS containing 0.05% Tween (Sigma) was used as blocking solution. For screenings against fibrinogen, either 2% BSA in PBS with 0.05% Tween or Blocker™Casein (1%) in PBS (Pierce) was used. Each mixture of beads and blocking solution was incubated in a Cryotube (Nunc, Denmark) for 2 hours on a tube rotator.
The blocked library beads were then exposed to target protein by pipetting the ^14 C-labeled protein directly into the mixture of beads and blocking solution. […] For fibrinogen experiments, 13 μl and 65 μl of the 4 μM ^14 C-fibrinogen solution was added, yielding final fibrinogen concentrations of 50 nM and 250 nM, respectively. The mixtures of beads, blocking solution, and protein solution were further rotated for 1.5 hours (S-protein experiment) and for 1 hour (fibrinogen experiment).
After completion of blocking and binding, the beads were transferred to a Polyprep column (Biorad) and rinsed with PBS containing 0.05% Tween 20 (Sigma) until the column flow-through reached background DPM levels. The total rinsing volumes were 200 ml and 140 ml for S-protein and fibrinogen, respectively. […]

YNFEVL
association constant for binding S-protein (S-protein): 10^4 -10^5 M^-1 | amount of protein bound per bead, average (Ribonuclease S-protein; 14C-S-protein 1 µM in PBS with 0.05% Tween 20, 2% BSA, average of isolated positive beads): 133 fmol protein/bead | radioactivity of 14C-S-protein bound per bead (Ribonuclease S-protein; 14C-S-protein 1 µM in PBS with 0.05% Tween 20, 2% BSA, background (33 DPM) subtracted): 41-243 DPM/bead | amount of protein bound per bead (Ribonuclease S-protein; 14C-S-protein 1 µM in PBS with 0.05% Tween 20, 2% BSA, range over isolated positive beads): 49-289 fmol protein/bead | peptide to protein ratio (YNFEVL-peptide molecules to 1 S-protein molecule) (Ribonuclease S-protein; from average 70 pmol peptide/bead and 133 fmol protein/bead): ~500
